This data set relates to N[C@@H](CC(=O)c1ccccc1NC=O)C(=O)O. As to the kind of experiment: purified protein. As to conditions: pH 7.4; 25.0 °C.

These results are taken from publication PMC4243253.

Broadly, the Km is the substrate concentration at which the rate is half of its maximum. One may read the Vmax as the top rate of the reaction or transport when substrate is in excess. One may read the kcat/Km as the turnover number divided by the Michaelis constant.

Take BaKynB (Bacillus anthracis): the Km was 400 ± 50 µM, the Vmax came to 0.0654 µmol/min and the kcat/Km is 126000 M⁻¹ s⁻¹.
